Reference: patent publication US20140274797

Test system: specific peptide sequence that is a substrate for MMP-9 (Lys-Gly-Pro-Arg-Ser-Leu-Ser-Gly-Lys)

Which “cleavage of the donor/acceptor-labelled peptide (loss of FRET, colour change)” value does the source give for metalloproteinase-9 (MMP-9) here?
The value was “Addition of MMP-9 cleaves the peptide separating donor and acceptor”.
